Measurements published in patent US20080038735A1 (DOMANTIS, published 2008).

B1: Vk(TAR1-5-19) (other)
VL: MASTDIQMTQSPSSLSASVGDRVTITCRASQSIDSYLHWYQQKPGKAPKLLIYSASELQSGVPSRFSGSGSGTDFTLTISSLQPEDFATYYCQQVVWRPFTFGQGTKVEIKRAA
notes: Vk domain antibody tested as free dAb; also called free dAb; monomeric domain antibody in solution
B2: Vk(E5) (other)
VL: MASTDIQMTQSPSSLSASVGDRVTITCRASQSVSSYLNWYQQKPGKAPKLLIYLASRLQSGVPSRFSGSGSGTDFTLTISSLQPEDFATYYCQQNWWLPPTFGQGTKVEIKRAA
notes: also called Anti-beta-galactosidase Vk clone E5; 7t^3T.Vk(E5)

Assays:
TNFa [1] = target: T1, TNFa (UniProt P01375 77-233, biotinylated (sites not given)); experiment: not stated (told as a known affinity); higher affinity dAb, known affinity
T1 construct: also called biotinylated TNFa; bio-TNFa
T1 sequence (P01375 77-233 limits assumed): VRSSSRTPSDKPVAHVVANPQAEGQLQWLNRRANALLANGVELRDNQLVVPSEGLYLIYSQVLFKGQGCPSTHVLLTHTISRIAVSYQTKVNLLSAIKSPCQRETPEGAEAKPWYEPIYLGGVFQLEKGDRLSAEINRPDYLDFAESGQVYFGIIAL

TNFa [2] = target: T1, TNFa; experiment: ELISA: in vitro translated dAb captured on the plate, incubated with a concentration range of biotinylated TNFa, detected with streptavidin-HRP
Method: (§1) The ligation mixture was transformed to XL-10 gold cells (Stratagene) and cells were plated. […] The typical amplification cycle for this PCR is performed with platinum pfx DNA polymerase (invitrogen) and consists of: initial denaturation of 3 min at 95 C, followed by 25 cycles of 30 seconds at 95 C, 30 seconds at 60 C, and 2 minutes at 68 C; and a final extension at 68 C for 3 minutes. The PCR product is cleaned on a Qiagen spin column, eluted and the DNA concentration determined by OD 260/280. The cleaned PCR product is used for in vitro transcription/translation (IVT). A typical 50 μl IVT reaction consists of 500 ng of DNA, 2.0 λl methionine (5 mM), 1.5 μl oxidized glutathione (100 mM) (Sigma), 35 μl bacterial extract, e.g. EcoPro (Novagen), and 11 μl H₂O. The IVT reaction can be performed for 1 up to 4 hours at temperatures between 20 C and 37 C. After IVT, the reaction is diluted 1 in 10 in PBS+0.2% tween-20. Fifty μl are added to an ELISA plate, that has been coated with anti-HA (3F10, Roche) (1 μg/ml in PBS), and incubated for 1 hour at room temperature. After washing, a concentration range (0-500 nM) of biotinylated antigen, i.e. TNFa, is added and incubated on the plate for 1 hour. Again, plate is washed and streptavidin conjugated to horse radish peroxidase (Streptavidin-HRP, Amersham) at a dilution of 1:3500 is added and incubated on the plate for 30 minutes.

TNFa [3] = target: T1, TNFa; experiment: ELISA: in vitro translated E5 construct captured on the plate, incubated with a concentration range of biotinylated TNFa, streptavidin-HRP; the sheet does not say whether E5 is free or fused to Tus
Method: as §1

Binder	Kd (TNFa [1]) [nM]	EC50 (read off the curve) (TNFa [2]) [nM]	binding result (TNFa [3])
B1	50	~7	
B2			no binding (tested: 1000 nM)
